According to article PMC6793842:

Assays:
Assay in all cases: SPR
[1] = target: gorilla basigin, entire ectodomain (gorilla)
[2] = target: human basigin, entire ectodomain (human) (UniProt P35613)
[3] = target: gorilla basigin, entire ectodomain; settings: read off a plot; for other: t1/2 (interaction half-life): parent: est. 1.9 s; for response (response units): plateau of the highest curve of four 2-fold serial dilutions (600 to 75 nM), parent: est. 92
[4] = target: chimpanzee basigin, entire ectodomain (chimpanzee)

Sequence of human basigin, entire ectodomain (human) (P35613 138-325): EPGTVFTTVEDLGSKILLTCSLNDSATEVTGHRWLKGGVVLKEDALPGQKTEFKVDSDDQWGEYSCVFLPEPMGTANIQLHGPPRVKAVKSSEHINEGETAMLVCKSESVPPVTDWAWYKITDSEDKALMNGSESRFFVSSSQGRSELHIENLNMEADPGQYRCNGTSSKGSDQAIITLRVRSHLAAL

| Substance | Kd [2] [nM] | other: t1/2 (interaction half-life) [3] [s] | response (response units) [3] | further results |
| --- | --- | --- | --- | --- |
| P. praefalciparum RH5 (ligand) | 1900 | – | – | Kd [1]: 2500 nM |
| introgressed ancestral RH5 (reticulocyte-binding protein homologue 5) (from UniProt Q8IFM5) R216T | – | 2.3 | 130 | – |
| introgressed ancestral RH5 (reticulocyte-binding protein homologue 5) (from UniProt Q8IFM5) H200Y | – | – | 26 | – |
| introgressed ancestral RH5 (reticulocyte-binding protein homologue 5) (from UniProt Q8IFM5) Q219K | – | 2.2 | 310 | – |
| introgressed ancestral RH5 (reticulocyte-binding protein homologue 5) (from UniProt Q8IFM5) Y197S | – | 1.9 | 210 | – |
| introgressed ancestral RH5 (reticulocyte-binding protein homologue 5) (from UniProt Q8IFM5) D148H | – | 2.5 | 190 | – |
| P. billcollinsi RH5 (ligand) | – | – | – | Kd [4]: 1800 nM |
| P. adleri RH5 (ligand) | 3100 | – | – | Kd [1]: 1000 nM |
| P. gaboni RH5 (ligand) | 3600 | – | – | – |
| introgressed ancestral RH5 (reticulocyte-binding protein homologue 5) (from UniProt Q8IFM5) Y203C | – | 1.2 | 120 | – |
